The target of the test is T1, β1 integrins (UniProt P05556 21-798).
T1 construct: Endogenous protein of the epithelial membrane extract; also called beta 1 integrins
Nature of the test: gel overlay with HeLa membrane extract.

The values below come from patent US7208574 (UNIVERSITY OF BRITISH COLUMBIA, dated 2007).

T1 sequence (P05556 21-798): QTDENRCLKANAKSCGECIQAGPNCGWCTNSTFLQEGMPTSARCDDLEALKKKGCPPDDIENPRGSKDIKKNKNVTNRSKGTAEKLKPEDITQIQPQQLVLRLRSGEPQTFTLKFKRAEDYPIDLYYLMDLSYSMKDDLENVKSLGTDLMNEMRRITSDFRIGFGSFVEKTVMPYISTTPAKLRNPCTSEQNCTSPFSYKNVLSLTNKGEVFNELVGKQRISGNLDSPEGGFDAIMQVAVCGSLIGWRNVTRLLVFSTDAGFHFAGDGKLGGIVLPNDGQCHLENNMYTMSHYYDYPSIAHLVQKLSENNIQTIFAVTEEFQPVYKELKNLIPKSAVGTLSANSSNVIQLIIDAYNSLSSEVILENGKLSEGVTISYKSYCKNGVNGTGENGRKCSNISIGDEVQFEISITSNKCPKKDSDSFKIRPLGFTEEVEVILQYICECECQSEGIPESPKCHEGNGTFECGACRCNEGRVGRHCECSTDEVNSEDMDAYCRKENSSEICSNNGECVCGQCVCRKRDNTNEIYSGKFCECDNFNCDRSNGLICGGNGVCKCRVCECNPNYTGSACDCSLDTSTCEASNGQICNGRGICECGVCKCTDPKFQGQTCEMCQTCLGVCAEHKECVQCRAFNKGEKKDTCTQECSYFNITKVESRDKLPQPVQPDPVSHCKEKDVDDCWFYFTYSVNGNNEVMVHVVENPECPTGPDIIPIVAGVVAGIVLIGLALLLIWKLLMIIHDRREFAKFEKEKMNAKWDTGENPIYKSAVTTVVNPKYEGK

B1: His-T7Int fusion protein (other)
chain: ITEIKADKTTAVANGQDAITYTVKVMKGDKPVSNQEVTFTTTLGKLSNSTEKTDTNGYAKVTLTSTTPGKSLVSARVSDVAVDVKAPEVEFFTTLTIDDGNIEIVGTGVKGKLPTVWLQYGQVNLKASGGNGKYTWRSANPAIASVDASSGQVTLKEKGTTTISVISSDNQTATYTIATPNSLIVPNMSKRVTYNDAVNTCKNFGGKLPSSQNELENVFKAWGAANKYEYYKSSQTIISWVQQTAQDAKSGVASTYDLVKQNPLNNIKASESNAYATCVK
notes: domain: 280 C-terminal residues of intimin; Purified on an agarose-nickel column; also called His-T7Intimin; His-T7Int peptide
On to B1, for which the binding result was “no binding”.
